Measured values as given in the RNAGym collection of RNA variant scans (doi:10.1073/pnas.2313332121).
Variants at the floor of the assay were thinned out.

B1: TPR 5TU (parent)
chain: GGAUCUUCUCGAUCUAACAAAAAAGACAAAUCUGCCACAAAGCUUGAGAGCAUCUUCGGAUGCAGAGGCGGCAGCCUUCGGUGGCGCGAUAGCGCCAACGUUCUCAACUAUGACACGCAAAACGCGUGCUCCGUUGAAUGGAGUUUAUCAUG

Variants of: B1
Assay: polymerase ribozyme fitness, log enrichment relative to wild type (log ratio); higher = more active; in vitro selection for triplet polymerase activity
How it was run: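 Libraries of mutants in each subunit of a heterodimeric triplet polymerase ribozyme were generated by PCR and transcribed. In triplicate, each went through one in vitro selection round: annealing with biotinylated primer, partner subunit and triplets; frozen incubation at −7 °C; gel excision of extended constructs; streptavidin-bead capture; RT-PCR. Fitness, taken from Illumina sequencing of input and output libraries, is the logarithm of a genotype's enrichment over wild-type enrichment, averaged across replicates with inverse-variance weights. The logarithm is base 2, and genotypes needed ≥10 input reads and ≥1 read per output to be kept.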

Row | Variant | polymerase ribozyme fitness (log ratio)
1 | G62A G84A | -2.31
2 | A64C G88C U90G U102G A119U A120U C149G | ≤ -4.2
3 | G59A U90A A98G C103A | ≤ -4.2
4 | G59A A106C A113C C118G | ≤ -4.2
5 | G62A C85U A115U G141U | -1.19
6 | G59A U61A C69A A142C | -3.27
7 | G65A U139C G141C | -3.69
8 | G59A A89U C95A A97U C99A C125G | ≤ -4.2
9 | U61A U101A | -1.08
10 | G59C U111G | ≤ -4.2
11 | A64G C103G U148G | ≤ -4.2
12 | U61G G124C | -3.25
13 | U61A U146C | -0.489
14 | A66G C85A | -3.39
15 | G65C C149G | ≤ -4.2
16 | A60C C99A A113G U127G | ≤ -4.2
17 | A60U A97C U104C U134G U144C | -4.05
18 | G62C G74A G83A C125A U139G G140A | ≤ -4.2
19 | G58U G81C C93G | -3.21
20 | A60C U82A | -1.28
21 | A60C G68A C95A C96G U134G U139G | ≤ -4.2
22 | U61A A66C A73U A91G | ≤ -4.2
23 | G58U G141C A147U | -0.128
24 | G59A U134A | -2.02

Row | Variant | polymerase ribozyme fitness (log ratio)
25 | G65A G126A | -0.138
26 | A64C G68C C87A A91G C99A A121C A122C G143U | ≤ -4.2
27 | A60U C129G | -3.43
28 | G62A C87U C116U G117U | -0.42
29 | G59U A60U C85A | -2.59
30 | G59A C85G G100A U134G U144G A150C | ≤ -4.2
31 | G58U A66C U77G A91U C96G A97U | ≤ -4.2
32 | A60C G71U G92C C108G G117A G124U A137C | -4.08
33 | U61G G124C A147U | -1.99
34 | A64G C87A A115G C125A U148C C149G | ≤ -4.2
35 | A60G C72U G143U | -3.39
36 | G59U C95U G133U | ≤ -4.2
37 | G59A U135A G141U | -1.18
38 | G59C U82C | 0.0118
39 | U61A A66C G80A U82G | ≤ -4.2
40 | G65U | -3.1
41 | G65A | -1.04
42 | G65C | ≤ -4.2
43 | G62A C75G C96A | ≤ -4.2
44 | G62A G68C C87A | ≤ -4.2
45 | G59A A73G C93U A106G U144G U146C | -0.726
46 | G59C C93U G124C C125U A147U | -0.985
47 | G62A G92A | -3.43
48 | U61C G81A | -2.36

Row | Variant | polymerase ribozyme fitness (log ratio)
49 | G59C C76A C85G C118U | -2.89
50 | G59C A97U A106G C118G G124A U145G | -2.18
51 | A60U G86U | -4.01
52 | G62C G70A C79G G86C A142C C149U | ≤ -4.2
53 | G59A A60G U77G U127C | ≤ -4.2
54 | G62A A73C C87G | ≤ -4.2
55 | G62C G67C U134C A147G | ≤ -4.2
56 | G65A G88U A150G | ≤ -4.2
57 | G59A U61A C79U G83A A121C | ≤ -4.2
58 | G62C C85G | -3.23
59 | G59U G65C U109G | ≤ -4.2
60 | G59U C87U | -0.949
61 | C63G C85U U145A | 0.338
62 | G58U U61G | -1.81
63 | C63G G92A U145G | -2.07
64 | A60C G84A A91G C116U | -4.11
65 | G59C C85A | -0.943
66 | U61A C69A G86U G117C A119G | -3.92
67 | G59U C114U | -1.62
68 | G58U C123U G124C | -0.593
69 | G59U C87A A97U | ≤ -4.2
70 | U61A A150G | -1.15
71 | A60U C69A A89U | -0.419
72 | A64C A66U A122G | ≤ -4.2

Row | Variant | polymerase ribozyme fitness (log ratio)
73 | G59C G117A | 1.39
74 | U61G G117C A142C U146G | ≤ -4.2
75 | U61A U109G | -2.11
76 | A60U U61A G84U G128A G140C U148C | ≤ -4.2
77 | A60G G88U A97U A107G C114U | ≤ -4.2
78 | G59C A115C | -0.396
79 | G59C C76A U78C C87A G94C C96U G100A U144A | ≤ -4.2
80 | A64C C93U U102G | ≤ -4.2
81 | G59A U144C | 0.0653
82 | U61A C118G | -1.89
83 | A60U G92U A107C | ≤ -4.2
84 | A60G G83A U127G G136A A142G | -3.28
85 | G59C C95U G136U | -2.05
86 | G59C U139A | ≤ -4.2
87 | A64G C87A C105A U144G | ≤ -4.2
88 | G59U C132A | -2.09
89 | U61G C75U G92A C149A | ≤ -4.2
90 | A60U G141A | -0.304
91 | A60U G141C | -1.16
92 | A60C G81U C87U | -2.07
93 | G59C C69A | -1.79
94 | A60G U104G | 0.24
95 | G58U C69A C85U C132G G133C G141C | ≤ -4.2
96 | U61A U102C | -2.2

Row | Variant | polymerase ribozyme fitness (log ratio)
97 | G62U G68C A98G G124C G141A | ≤ -4.2
98 | G59C A60C C99U A119C | ≤ -4.2
99 | G59A C87U A137U | ≤ -4.2
100 | G62C C63U | -2.25
101 | G59C C95U A106G C116A | 0.288
102 | G62A C103A G152A | -3.85
103 | G59C A138C | -3.7
104 | G59A U101A | 0.287
105 | G59A C132A | -2.31
106 | U61A U77G C85U C125A | ≤ -4.2
107 | G62A C96A | -2.92
108 | A60G C99G U102A U144G | ≤ -4.2
109 | G62C C93U | -3.83
110 | G59U G84A U104C | -0.647
111 | A60G U61G C93U | -2.26
112 | G62A C93U C118U G143U | -3.81
113 | G65A G70A G94A C116U G143U | ≤ -4.2
114 | U61A G83A | -2.9
115 | A60G C69U A122C U135C | -3.94
116 | A64G C76U | -3.62
117 | G59A U82A C95G G136A | -1.25
118 | A66G A89U C95G C116A C123A | ≤ -4.2
119 | C63U U134A | -2.6
120 | G59A C85A C95U C103U U134A | -3.2

Row | Variant | polymerase ribozyme fitness (log ratio)
121 | G59A G100A | ≤ -4.2
122 | G62A G65A A66C U77C U135C U145G | ≤ -4.2
123 | A64C A66C C125U | ≤ -4.2
124 | A64G C85U | -3.21
125 | A66C C96A A115C C123U G136C | ≤ -4.2
126 | A64G G68A C85A | ≤ -4.2
127 | A66G C114U | -4.17
128 | U61A C85U A89U C118A C149U | -3.61
129 | A60G U101A G141U A147C | -4.13
130 | A60U U61C | ≤ -4.2
131 | G59C G71U G88U A98U C116G G124U | ≤ -4.2
132 | G59U G88U G94U U102G A147G | ≤ -4.2
133 | C63U C72U C105A | -3.97
134 | G59U A64C G71A G117U | ≤ -4.2
135 | U61A | -1.18
136 | U61G | -1.25
137 | U61C | -1.79
138 | G59C G86C | -3.39
139 | G59C U102G | -2.05
140 | G62C A97G | -0.203
141 | A66C C96A | ≤ -4.2
142 | C63G C93A | -1.77
143 | A64G G68U U144A | ≤ -4.2
144 | C63A G84A A121C A142U U145A A150C | ≤ -4.2

Row | Variant | polymerase ribozyme fitness (log ratio)
145 | G59U C79A G86A A89G A122G G141C | ≤ -4.2
146 | G59U C76G A91G A106C C114U C125U G128A G143U | ≤ -4.2
147 | G65A C69A G84A | -1.8
148 | G59U G80A C85A | -0.927
149 | G62C G68A U82G C93A A97G C118A G143U | ≤ -4.2
150 | A60G C93U | -1.09
151 | A60G C93A | -2.81
152 | C63A U102C A142G | -2.31
153 | A60G C108U G126U | -3.26
154 | G62A A120C | -1.04
155 | G62A C76U | -1.26
156 | G62A A115G A120G | -0.97
157 | A64U C75U C85U G136C | ≤ -4.2
158 | G59U C96U A98U | -0.711
159 | A64G G86A | -4.08
160 | A64G G84U | -4.16
161 | A66C A73C G140U A147C | ≤ -4.2
162 | C63A U144C U145A | -2.97
163 | U61G G88C | ≤ -4.2
164 | G59A C93A G141C | -4.03
165 | G62U G92C C96A A98U | -2.71
166 | A64C C72G A91C A106U U109G C123A U148C | ≤ -4.2
167 | G59U C95A C96G A119U C123U C149U | -3.57
